Results on 5 molecules are retold here after PMC10283294, “Chromosome-level genome assembly of Murraya paniculata sheds light on biosynthesis of floral volatiles” (BMC Biology, 2023).

Positions count from the first letter of the chain named.

What all share (test): GC-MS of phenylacetaldehyde, Lineweaver-Burk
One data set has as its system Me3G_2284 (PAAS). It is filed as biochemical, Murraya paniculata. The following applies: pH 8.5 Tris-HCl, 28 °C, 0.2 mM PLP, 0.1 mM EDTA; read-out: apparent Km.
Another data set relates to Me5G_1302 (PAAS). It is filed as biochemical, Murraya paniculata. To be noted: pH 8.5 Tris-HCl, 28 °C, 0.2 mM PLP, 0.1 mM EDTA; read-out: apparent Km.
Another data set relates to Me4G_0535 (PAAS). Type of data set: biochemical, Murraya paniculata. The following applies: pH 8.5 Tris-HCl, 28 °C, 0.2 mM PLP, 0.1 mM EDTA; read-out: apparent Km.
A further data set has as its target T1, Me2G_2382 (PAAS) (Murraya paniculata, UniProt Z9M7G4IQ32).
T1 sequence (Z9M7G4IQ32 1-505): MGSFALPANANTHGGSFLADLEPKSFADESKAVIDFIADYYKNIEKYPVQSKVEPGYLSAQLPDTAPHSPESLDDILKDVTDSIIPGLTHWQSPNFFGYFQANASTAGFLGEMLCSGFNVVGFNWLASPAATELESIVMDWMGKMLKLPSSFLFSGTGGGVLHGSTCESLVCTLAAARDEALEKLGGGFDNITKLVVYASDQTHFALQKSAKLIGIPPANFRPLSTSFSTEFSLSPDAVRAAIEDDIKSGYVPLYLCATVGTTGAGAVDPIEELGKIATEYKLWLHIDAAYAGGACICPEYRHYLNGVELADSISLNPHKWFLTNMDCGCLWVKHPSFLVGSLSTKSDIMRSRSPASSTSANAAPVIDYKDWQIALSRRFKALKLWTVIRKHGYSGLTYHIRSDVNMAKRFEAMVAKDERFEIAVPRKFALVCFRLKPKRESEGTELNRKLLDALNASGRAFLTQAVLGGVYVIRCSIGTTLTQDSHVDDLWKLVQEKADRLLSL
Type of data set: biochemical. The following applies: pH 8.5 Tris-HCl, 28 °C, 0.2 mM PLP, 0.1 mM EDTA.

A further data set deals with T2, Me3G_1222 (PAAS) (Murraya paniculata, UniProt Z9VGT8ZCM8).
T2 sequence (Z9VGT8ZCM8 1-380): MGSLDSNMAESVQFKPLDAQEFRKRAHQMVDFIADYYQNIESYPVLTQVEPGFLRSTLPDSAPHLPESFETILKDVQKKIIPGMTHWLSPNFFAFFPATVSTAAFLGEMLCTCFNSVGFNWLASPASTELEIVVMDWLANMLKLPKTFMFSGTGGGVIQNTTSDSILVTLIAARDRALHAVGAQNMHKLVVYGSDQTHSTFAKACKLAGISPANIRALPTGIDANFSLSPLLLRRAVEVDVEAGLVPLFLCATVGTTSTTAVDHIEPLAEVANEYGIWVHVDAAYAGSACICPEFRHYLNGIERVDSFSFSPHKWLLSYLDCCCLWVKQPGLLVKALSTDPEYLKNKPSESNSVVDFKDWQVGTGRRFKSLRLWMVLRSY
It is filed as biochemical. To be noted: pH 8.5 Tris-HCl, 28 °C, 0.2 mM PLP, 0.1 mM EDTA; read-out: apparent Km.

Substrate in data set [1]: N[C@@H](Cc1ccccc1)C(=O)O
Type of data set: biochemical, Murraya paniculata. To be noted: pH 8.5 Tris-HCl, 28 °C, 0.2 mM PLP, 0.1 mM EDTA.

Turning to `N[C@@H](Cc1ccccc1)C(=O)O` [L-phenylalanine], the Km was determined as 36.6 ± 4.35 mM in the data set with Me3G_2284 (PAAS), 9.89 ± 1.77 mM in the data set with Me5G_1302 (PAAS), 2 ± 0.54 mM with Me4G_0535 (PAAS) and 9.99 ± 0.46 mM at Me3G_1222 (PAAS). Further, on Me2G_2382 (PAAS), the “apparent Km” value was “kinetic characterisation of purified recombinant PAAS revealed an apparent Km for L-phenylalanine (L-Phe)”.

B1: Me1G_2960 (PAAS) (Murraya paniculata) (protein)
chain: MDAEQLRENAHKMVDFIADYYKSIENFPVLSQVQPGYLHNLIPDSAPNHPESLQNVLDDIQEKILPGVTHWQSPNYFAYFPSNSSVAGFLGEMLSAGLNIVGFSWITSPAATELEMIVLDWLAKLLKLPEDFLSTGQGGGVIQGTASEAVLVVLLAARDEALKRVGKNSLEKLVVYASDQTHSALQKACQIGGIHRQNFRVLKTDSSTNYSLSPDSLAEAISRDLTMGLIPFFLGATVGTTSSTAVDPLLALGNIAKSNGMWFHVDAAYAGSACICPEYRQYIDGVEKADSFNMNAHKWFLTNFDCSALWVKDRNTLIQSLSTNPEFLKNKVSFYFSVHNMFLYYFLAQLSRPKSKSHLFVFVHINCIMNCPFNNVMLTVVELSTLSGENGNILASQANMVVDYKDWQIPLGRRFRSLKLWMVLRLYGLENLQGYIRNHIQLAKHFEGLVAQDSRFEVVTPRIFSLVCFRLLPPHNDEDHGNKLNHNLLDAVNSTGKIFISHTVLSGKYILRFAVGAPLTEGRHVNAAWEVVRDRASALLARLSTE
With B1, in data set [1], the Km came to 1.7851 ± 0.66 mM and the kcat/Km was 55.9 M⁻¹ s⁻¹.

B2: Me3G_0317 (PAAS) (Murraya paniculata) (protein)
chain: MGSLTSDLELEYNSNSSINLLDSEEFRRQGHMFVDFMAEYYKTIDKYPVRSQVEPGYLKKRLPESAPYSPESVETILEDVQEHIVPGITHWQSPNYFAYFPATSSVPGILGEMLSSGFNVVGMDWISSPAAVELENIVMDWLGQMLNLPKSFLFSGNGGGVIQGTTCEALLCTLTAARDRVLKKIGRENISKLVVYSSDQTHCAFQKAAQIVGIDRKNIRAIKTTKSSSYGLSAESVLSQINLDVEAGLIPLFLCATVGTTAITAVDPLRPLCDVAKQFGMWVHVDAAYAGSACICPEFRHFIDGVECVDSFSFNPHKWLFTSLDCCCLWVKDPSCLLSTLSTNPHYLKNEATDQEPKGQEVGYKDWQITLCRRFRSLKLWLVIRNFGVANLRNFIRSHVGMAKLFERLVHSDKRFEVAFPRNFSLVCFRVTPSAVMDKLRTKYKNGTHDQYRQLSEEERTNEFNRELLESINVSGKVFMTHAIVGGIYVLRFAAGNSMTMESHVREAWTVVQEHLEAF
On to B2, for which, in data set [1], the Michaelis constant (Km) is 2.7821 ± 0.73 mM and the kcat/Km was 45.2 M⁻¹ s⁻¹.

B3: Me2G_2379 (PAAS) (Murraya paniculata) (protein)
chain: MGSFALPPNGNTHGRSFSADLEPKSFADEAKAVIDFIADYYKNIEKYPVQSKVEPGYLSAQLPDTAPHSPESLDDILKDVTDSIIPGLTHWQSPNFFGYFQANASTAGFLGEMLCSGFNVVGFNWLASPAATELESIVMDWMGKMLKLPSSFLFSGTGGGVLHGSTCESLVCTLAAARDEVLEKLGGGFDNITKLVVYASDQTHFALQKSAKLIGIPPANFRPLSTSFSTEFSLSPDAVRAAIEDDIKSGYVPLYLCATVGTTGAGAVDPIEELGKIATEYKLWLHIDAAYAGGACICPEYRHYLNGVELADSISLNPHKWFLTNMDCGCLWVKHPSFLVGSLSTKSDIMRSRSPASSTSANAAPVIDYKDWQIALSRRFKALKLWTVIRKHGYSGLTYHIRSDVNMAKRFEAMVAKDERFEIAVPRKFALVCFRLKPKRESEGTELNRKLLDALNASGRAFLTQAVLGGVYVIRCSIGTTLTQDSHVDDLWKLVQEKADRLLSLQEPEHARC
As for B3, in data set [1], the Km is 3.7265 ± 0.83 mM and the kcat/Km is 100 M⁻¹ s⁻¹.

B4: Me2G_2381 (PAAS) (Murraya paniculata) (protein)
chain: B3 chain with P8A, G10A, R15G, S360R, R512G
Consider B4, for which, in data set [1], the Km came out at 1.7943 ± 0.60 mM and the kcat/Km was 62.9 M⁻¹ s⁻¹.
